B1: ZNF193 (parent)
chain: QCIECGKSFNRHCNLIRHQKIHTV
B2: LCOR (parent)
chain: PCAGSTSLSHSPGCSSTQGNGRPG
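Further: lentivirally expressed fusions sorted by FACS into six bins by GFP to DsRed ratio, PSI derived from sequencing read proportions per bin multiplied by bin number.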

The first series covers variants of B1. Put plainly: protein stability index of a GFP-peptide fusion (GPS, HEK-293T) (PSI 1-6); higher = more stable. Conditions: c terminus: a fixed tail appended.
With GCIECGKSFNRHCNLIRHQKIHTV [Q1G], the protein stability index was 2.45.
The same measure, in the same setting: the value for FCIECGKSFNRHCNLIRHQKIHTV [Q1F] was 2.83; that for ICIECGKSFNRHCNLIRHQKIHTV [Q1I] was 3.28; that for ECIECGKSFNRHCNLIRHQKIHTV [Q1E] was 2.8.
With KCIECGKSFNRHCNLIRHQKIHTV [Q1K], the protein stability index is 3.6.
Same read-out and setting: the value for CCIECGKSFNRHCNLIRHQKIHTV [Q1C] was 3.26; that for DCIECGKSFNRHCNLIRHQKIHTV [Q1D] was 3.5; that for HCIECGKSFNRHCNLIRHQKIHTV [Q1H] was 3.36.
The same measure, in the same setting: as for ACIECGKSFNRHCNLIRHQKIHTV [Q1A], the figure is 3.14.

The next series covers variants of B2. Described as above. To be noted: c terminus: a fixed tail appended.
For the variant PCAGSTSLSHSPGCESTQGNGRPG [S15E], the protein stability index stood at 3.55.
The same measure, in the same setting: as for PCAGSTSLSHSPGCQSTQGNGRPG [S15Q], the figure is 2.79.
Take PCAGSTSLSHSPGCGSTQGNGRPG [S15G]: the protein stability index stood at 2.49.
Turning to PCAGSTSLSHSPGCISTQGNGRPG [S15I], the protein stability index stood at 2.8.
Take PCAGSTSLSHSPGCYSTQGNGRPG [S15Y]: the protein stability index was determined as 2.92.
On the same count and under the same terms, as for PCAGSTSLSHSPGCVSTQGNGRPG [S15V], the figure is 3.3; as for PCAGSTSLSHSPGCLSTQGNGRPG [S15L], 3.36; as for PCAGSTSLSHSPGCDSTQGNGRPG [S15D], 4.31.
Still for that read-out and setting: as for PCAGSTSLSHSPGCMSTQGNGRPG [S15M], the figure is 2.95.
On to PCAGSTSLSHSPGCWSTQGNGRPG [S15W], for which the protein stability index is 2.85.
On to PCAGSTSLSHSPGCKSTQGNGRPG [S15K], for which the protein stability index was 2.39.
PCAGSTSLSHSPGCHSTQGNGRPG [S15H]: the protein stability index stood at 2.4.
Same read-out and setting: the value for PCAGSTSLSHSPGCASTQGNGRPG [S15A] was 2.91.
On the same count and under the same terms, the value for PCAGSTSLSHSPGCFSTQGNGRPG [S15F] was 2.83; that for PCAGSTSLSHSPGCSSTQGNGCPG [R22C] was 3.92.
As to PCAGSTSLSHSPGCSSTQGNGNPG [R22N], the protein stability index was 4.2.
In the case of PCAGSTSLSHSPGCSSTQGNGMPG [R22M], the protein stability index amounted to 3.78.
Consider PCAGSTSLSHSPGCSSTQGNGAPG [R22A], for which the protein stability index amounted to 4.1.
Turning to PCAGSTSLSHSPGCSSTQGNGGPG [R22G], the protein stability index was determined as 3.06.
Take PCAGSTSLSHSPGCSSTQGNGEPG [R22E]: the protein stability index amounted to 4.55.
The same measure, in the same setting: as for PCAGSTSLSHSPGCSSTQGNGHPG [R22H], the figure is 3.96.
The same measure, in the same setting: as for PCAGSTSLSHSPGCSSTQGNGPPG [R22P], the figure is 3.83; as for PCAGSTSLSHSPGCSSTQGNGYPG [R22Y], 4.14.
Same read-out and setting: the value for PCAGSTSLSHSPGCSSTQGNGLPG [R22L] was 2.47; that for PCAGSTSLSHSPGCSSTQGNGWPG [R22W] was 2.55.
As for PCAGSTSLSHSPGCSSTQGNGKPG [R22K], the protein stability index amounted to 4.23.
As for PCAGSTSLSHSPGCSSTQGNGFPG [R22F], the protein stability index is 3.37.
Still for that read-out and setting: as for PCAGSTSLSHSPGCSSTQGNGIPG [R22I], the figure is 3.97; as for PCAGSTSLSHSPGCSSTQGNGTPG [R22T], 3.46.
Same read-out and setting: the value for PCAGSTSLSHSPGCSSTQGNGSPG [R22S] was 5.07; that for PCAGSTSLSHSPGCSSTQGNGDPG [R22D] was 4.3; that for PCAGSTSLSHSPGCSSTQGNGQPG [R22Q] was 3.98.
In the case of PCAGSTSLSHSPGCSDTQGNGRPG [S16D], the protein stability index is 4.05.
As for PCAGSTSLSHSPGCSMTQGNGRPG [S16M], the protein stability index amounted to 2.22.
The same measure, in the same setting: the value for PCAGSTSLSHSPGCSHTQGNGRPG [S16H] was 2.21; that for PCAGSTSLSHSPGCSPTQGNGRPG [S16P] was 4.1; that for PCAGSTSLSHSPGCSLTQGNGRPG [S16L] was 1.6.
Take PCAGSTSLSHSPGCSITQGNGRPG [S16I]: the protein stability index turned out to be 2.07.
For the variant PCAGSTSLSHSPGCSATQGNGRPG [S16A], the protein stability index was found to be 3.
On the same count and under the same terms, as for PCAGSTSLSHSPGCSRTQGNGRPG [S16R], the figure is 4.34.
Still for that read-out and setting: the value for PCAGSTSLSHSPGCSKTQGNGRPG [S16K] was 3.37; that for PCAGSTSLSHSPGCSETQGNGRPG [S16E] was 3.18; that for PCAGSTSLSHSPGCSFTQGNGRPG [S16F] was 2.87.
As to PCAGSTSLSHSPGCSGTQGNGRPG [S16G], the protein stability index amounted to 3.74.
On the same count and under the same terms, as for PCAGSTSLSHSPGCSQTQGNGRPG [S16Q], the figure is 3.03; as for PCAGSTSLSHSPGCSNTQGNGRPG [S16N], 3.53; as for PCAGSTSLSHSPGCSYTQGNGRPG [S16Y], 2.02.
On the same count and under the same terms, as for PCAGSTSLSHSPGCSSTQGNGRWG [P23W], the figure is 2.44.
Consider PCAGSTSLSHSPGCSSTQGNGRAG [P23A], for which the protein stability index was found to be 3.78.
Same read-out and setting: the value for PCAGSTSLSHSPGCSSTQGNGRRG [P23R] was 3.22; that for PCAGSTSLSHSPGCSSTQGNGRHG [P23H] was 3.88; that for PCAGSTSLSHSPGCSSTQGNGRTG [P23T] was 3.34.
Turning to PCAGSTSLSHSPGCSSTQGNGRYG [P23Y], the protein stability index worked out at 2.75.
Still for that read-out and setting: as for PCAGSTSLSHSPGCSSTQGNGRIG [P23I], the figure is 3.02; as for PCAGSTSLSHSPGCSSTQGNGREG [P23E], 3.39; as for PCAGSTSLSHSPGCSSTQGNGRCG [P23C], 3.45.
Still for that read-out and setting: the value for PCAGSTSLSHSPGCSSTQGNGRDG [P23D] was 4.15.
Still for that read-out and setting: as for PCAGSTSLSHSPGCSSTQGNGRVG [P23V], the figure is 3.39; as for PCAGSTSLSHSPGCSSTQGNGRMG [P23M], 2.98; as for PCAGSTSLSHSPGCSSTQGNGRSG [P23S], 3.44.
PCAGSTSLSHSPGCSSTQGNGRLG [P23L]: the protein stability index is 3.24.
Same read-out and setting: as for PCAGSTSLSHSPGCSSTQGNGRKG [P23K], the figure is 3.78.
As to PCAGSTSLSHSPGCSSTQGNGRFG [P23F], the protein stability index came out at 2.46.
Take PCAGSTSLSHSPGCSSTQGNGRQG [P23Q]: the protein stability index came out at 2.03.
As to PCAGSTSLSHSPGCSSTQGNGRNG [P23N], the protein stability index was found to be 3.79.
The same measure, in the same setting: as for PCAGSTSLSHSPGCSSTGGNGRPG [Q18G], the figure is 3.53; as for PCAGSTSLSHSPGCSSTSGNGRPG [Q18S], 3.55.
In the case of PCAGSTSLSHSPGCSSTIGNGRPG [Q18I], the protein stability index is 2.48.
The same measure, in the same setting: as for PCAGSTSLSHSPGCSSTEGNGRPG [Q18E], the figure is 3.34; as for PCAGSTSLSHSPGCSSTRGNGRPG [Q18R], 3.01; as for PCAGSTSLSHSPGCSSTVGNGRPG [Q18V], 2.5.
On to PCAGSTSLSHSPGCSSTNGNGRPG [Q18N], for which the protein stability index was 3.51.
Still for that read-out and setting: the value for PCAGSTSLSHSPGCSSTDGNGRPG [Q18D] was 2.98; that for PCAGSTSLSHSPGCSSTPGNGRPG [Q18P] was 2.89; that for PCAGSTSLSHSPGCSSTTGNGRPG [Q18T] was 3.37.
The same measure, in the same setting: the value for PCAGSTSLSHSPGCSSTMGNGRPG [Q18M] was 3.01; that for PCAGSTSLSHSPGCSSTYGNGRPG [Q18Y] was 2.75; that for PCAGSTSLSHSPGCSSTFGNGRPG [Q18F] was 2.27.
On the same count and under the same terms, the value for PCAGSTSLSHSPGCSSTCGNGRPG [Q18C] was 2.73; that for PCAGSTSLSHSPGCSSTKGNGRPG [Q18K] was 3.77; that for PCAGSTSLSHSPSCSSTQGNGRPG [G13S] was 3.46.
Consider PCAGSTSLSHSPTCSSTQGNGRPG [G13T], for which the protein stability index was 2.72.
The same measure, in the same setting: the value for PCAGSTSLSHSPYCSSTQGNGRPG [G13Y] was 2.53; that for PCAGSTSLSHSPGESSTQGNGRPG [C14E] was 4.9.
Regarding PCAGSTSLSHSPGLSSTQGNGRPG [C14L], the protein stability index was found to be 4.34.

These data come from the supplement of paper PMC10567573.
